Test results reported in patent US20250340640A1 (published 2025).
Numbering of substitutions follows the chain as printed.

T1: recombinant protein TCRVB 6-5 (human, captured on a Biotin CAP sensor chip, so presumably biotinylated; the site is not stated)
T1 construct: also called TCRVβ 6-5; TCRβ V6-5*01
T1 TCR beta: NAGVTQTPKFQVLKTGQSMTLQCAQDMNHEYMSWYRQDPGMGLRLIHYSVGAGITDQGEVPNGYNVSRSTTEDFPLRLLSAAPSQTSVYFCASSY

B1: A-H.52 (scFv)
scFv: QVQLVQSGAEVKKPGSSVKVSCKASGYSFTLGYIHWVRQAPGQGLEWMGWFFPGSGNIKYNEKFKGRVTITADTSTSTAYMELSSLRSEDTAVYYCAGSYYSYDVLDYWGQGTTVTVSSGGGGSGGGGSGGGGSGGGGSDIQMTQSPSFLSASVGDRVTITCKASQNVGINVVWHQQKPGKAPKALIYSSSHRYSGVPSRFSGSGSGTEFTLTISSLQPEDFATYFCQQFKSYPLTFGQGTKLEIK
notes: also called phage clone; monovalent scFv
B2: A-H.53 (scFv)
scFv: B1 scFv with T30R, G32T
notes: Described only as a phage clone; also called phage clone
B3: A-H.54 (scFv)
scFv: B1 scFv with T30H, L31N, G32W
notes: as for B2

Biological target: T1, recombinant protein TCRVB 6-5
Assay: SPR, compared with BJM0277
Protocol: (§1) TCRVB 6-5 at 5 μg/mL was immobilized on a Biotin CAP Series S Sensor Chip to 60 RU. A-H.52 was diluted to 50 nM and then serially diluted two fold. Association was 120 seconds, dissociation was 300 seconds. This assay was run in 1×HBS-EP+ Buffer pH 7.4 and 25C. The data was fit using a 1:1 binding model. A-H.52 is a phage clones and is a monovalent scFv. A-H.52 has two mutations on CDRH1.
(§2) TCRVB 6-5 at 5 ug/mL was immobilized on a Biotin CAP Series S Sensor Chip to 60 RU. A-H.53 was diluted to 50 nM and then serially diluted two fold. Association was 120 seconds, dissociation was 300 seconds. This assay was run in 1×HBS-EP+ Buffer pH 7.4 and 25C. The data was fit using a 1:1 binding model. A-H.53 (phage clone) affinity is in the pM range (Table 16).
as §1, with “A-H.54” for “A-H.52”, “model.” for “model. A-H.52 is a phage clones and is a monovalent scFv. A-H.52 has two mutations on CDRH1.”

Going from B1 to B2, the “fold greater affinity than BJM0277” value rises from 20 fold to 200 fold.

With B3 the “fold greater affinity than BJM0277” value was 17 fold.

Biological target: T1, recombinant protein TCRVB 6-5
Assay: SPR, TCRVB 6-5 captured on Biotin CAP Series S chip, 1:1 model, 25C
Protocol: as §1, §2
as §1, with “A-H.54” for “A-H.52”, “model.” for “model. A-H.52 is a phage clones and is a monovalent scFv. A-H.52 has two mutations on CDRH1.”

First: B1
Second: B2
The Kd of the first is 11-fold higher: 1.76 nM for the first, 0.165 nM for the second. The second binds more tightly here.

B3 was tested, and the Kd was 2.22 nM.
